Results taken from patent US20130095071A1, “METHOD OF TREATING OR PREVENTING HEARING LOSS” (Audigen Inc., priority 2009, published 2013).

Legend:
cochlear hair cells = test: Enzyme facilitated cochlear gene transfection with AAV through round window membrane; type: in vivo, guinea pig; conditions: after digestion of RWM
Protocol: (§1) The reaction time was 10 minutes.
For inner ear gene transfection, a piece of gelfoam (1-2 mm^3) was placed gently on RWM. 5 ul AAV solution was applied to the gelfoam. The cochlea was taken out for cochlea immunostaining against GFP 2-4 weeks after the surgical application of AAV vectors.
The transfection is through intact round window membrane (RWM). Under appropriate anesthesia, a cut of 2 cm is made posterior to the earlap and the soft tissue is distracted to expose the mastoid. The round window of the guinea pig is exposed by drilling a small hole of 2-3 mm in diameter on the mastoid. Solution of collagenase II is freshly prepared at concentration of 150 units/ml. With the help of a microinjection pump, a total of 10 μl enzyme solution is applied to the round window niche at a flow rate of 10 nl/sec. After reaction time of 10 minutes, residual enzyme solution is sucked out first using suction pump and then use gelfoam. […] Hearing status is evaluated using audiotory brainstem response (ABR).
The transfection is evaluated 2 weeks after the surgery. […] GFP positive hair cells are counted along the length of the cochlear duct. […]
A post-auricular approach was used to expose the tympanic bony bulla. […] The duration for the digestive treatment varied from 5 to 10 minutes and the quantity of the digestive solution 5 to 10 μl. […]

[1] = Safety of enzyme digestion of RWM: ABR before and after surgery; type: in vivo, guinea pig; conditions: 12 ears, 2-4 weeks after surgery
Protocol: as §1
ABR was tested in animals underwent gene transfection before and just before the animal was killed for morphology.
The transfection is through intact round window membrane (RWM). Under appropriate anesthesia, a cut of 2 cm is made posterior to the earlap and the soft tissue is distracted to expose the mastoid. The round window of the guinea pig is exposed by drilling a small hole of 2-3 mm in diameter on the mastoid. Solution of collagenase II is freshly prepared at concentration of 150 units/ml. With the help of a microinjection pump, a total of 10 μl enzyme solution is applied to the round window niche at a flow rate of 10 nl/sec. After reaction time of 10 minutes, residual enzyme solution is sucked out first using suction pump and then use gelfoam. A piece of gelfoam (2-3 mm^3) is placed upon RWM and then 5 μl AAV-GFP is applied to the gelfoam. The hole of mastoid is covered by suturing the soft tissue. Hearing status is evaluated using audiotory brainstem response (ABR).

[2] = SEM/TEM examination of round window membrane after enzyme digestion
Protocol: Under appropriate anesthesia, the round window of the guinea pig was surgically exposed and inspected visually under a surgical microscope. Freshly prepared collagenase solution of 2-3 ul was applied to the round window niche with the help of a microinjection pump. The reaction time was 10 minutes. The residual solution was then sucked out and the RWM was washed with saline. The collagenase was used at a concentration of between 50 unit/ml to 200 unit/ml. In one example, the concentration used was 150 unit/ml. In the example provided here, the collagenase was collagenase from Clostridium histolyticum, Type II (available from Sigma).
To evaluate the damage of the digesting solution on RWW, the animal was killed immediately after the digestion and the cochleae were taken out and fixed with standard protocol for electronic microscopy. To evaluate if the damaged RWM heals spontaneously, some other animals were allowed to survive for 3 weeks before the RWMs were taken for examination.
Under deep anesthesia with an overdose of pentobarbital (100 mg/kg), the animal was decapitated and the temporal bone was rapidly removed and the cochlea extracted. To examine the RWM, the cochlea was immersed into a fixative of 2.5% glutaraldehyde overnight at 4° C., and post fixed in 2% OsO4 for 2 hours. […]

collagenase
permeability of RWM to AAV (cochlear hair cells): makes RWM permeable to AAV
ABR threshold shift ([1]; 32, 48 kHz): less than 15 dB
hearing loss ([1]; other frequencies tested): no hearing loss
damage to RWM (SEM, TEM) ([2]; 3 weeks after the treatment): no difference from normal control
damage to RWM (SEM, TEM) ([2]; immediately after the treatment): causes damage to the epithelia facing middle ear
